Consider 8 sequences from the DeepSol protein solubility set.

The nature of the series: soluble on expression in E. coli; label from the status in PepcDB or PDB records.
For the sequence “MSLKLSDPGPIFYGHRRVGHNGRYFHCLKFRTMAMNGDEMLRQYLAANPEAAEEWRATRKLKNDPRVTAVGAVLRKLSLDELPQLLNIIRGEMSVVGPRPVVDEELSYYENAAAYYLSTRPGLTGLWQISGRNDVSYKTRVAFDTQYVQNWSMRQDVFIIVKTIPAVCMSRGSYEGHHHHHH”, the “soluble on expression in E. coli” value is recorded as “soluble”.
For “MQHEEGNRQRPQGELLLRTVAMPRDTNPNQDIFGGWIMSQMDLGGGILAAEIARGRIVTVAVQEMNFIRPVKVGNVVCCYGHCVRVGNTSLQLKVEVWVKTLMNDCVTEDRHLVTEAVFTYVAIDAEGNPRPIPKEGNPILAGLLPTPLEHHHHHH”, the “soluble on expression in E. coli” value is recorded as “soluble”.
For “MVLLVNIDDNEKWDNTVKGFENFDVYYLSGYVKAFHAHGDGEPKLFFYEDSNIKAINVFMKRDIEKDQNFSGKIPPNTFYDAATPYGYGGFLIEGNVTDESLRTLEKEYSELCLNEGIISEFVRFHPVINNSGTVSSIYDILELGRTVTIELDSREKVWEGFAGNNRNKVRKAKKSGVEIFWGRSPKLFDTFIPMYNETMDNDGASGYYYFKKDFYNSILEDLKYNSLIFYAVFEDRIISMSIILFANKQMHYHLSATDREYRNLAPTNLLLYEAACWGIENGYKTFHLGGGLGSREDSLYQFKKGFNKNSSTYFCIGKKIFDKEKYDELIKIRKQDPYFDENKLFFPLYRG”, the “soluble on expression in E. coli” value is “not soluble”.
In the case of “MGSDKIHHHHHHMTEQVTRRDVLGTGASVLGSLAIGSTTASGALQTDGTTVTFLHDTHVHGRFANASAGELSVARYFGLMNEITEDADTTLRVGNGDDLASSVLSAVFDGRHVVSTFNAGGLDFDTFGNHDFDMGPEVLRERVSDSLFTWVSANVREDGSVFAAEQGAQQYVLTDVGDVTLGVTGLITPEAPEVTSIGENTDVLAPASALQNVTERMRADGADAVIVLSHLASETARTVAEEVDGVDAIIGDHAASLLEEPEVINDTVLSFVGDEYEYLGELALGIDGSGVTDHEFVLHNVGESSAGTDPFVSLVQDHYETQLERQLDVVIGETTQPLDTRQSVVRARESNMGNFVADTIRTDVEADTALMNGGGIRTDRLYFEDASEDDPVAITRRVVVDILPFPNNVVELEVTGETLLAALENGVSRVEAGAGRFPQVSGITYTYDPTAESGDRIVDATAGGDPIDPDATYTLATNDFVSGGGDGYDMLSDATVLVSSNEGALLSDLIINTIEEQGTISPTTEGRITRQSEES”, the “soluble on expression in E. coli” value is recorded as “not soluble”.
With “MPTDDKARPRKTLTIKKTAPAAPSADDEAPRRKRIGARARLVAQMERAKEQQHAPRRKAPRQDAAHQDDAPRRRPRAPREAEIFPVYAPCPQGIEEALAAEMQALGFEDARAGRAGCAFSTDWAGVQRANLYSRLATRILVQVAQADIGHEDDILDLARSVPWERWFGPDETLRVDTSAIKSPVKSLQYCNLRAKDGICDRLREVEGARPDIDTVRPDARVHLFLSGTTATLYLDTSGESLFKRGWRLDKGEAPLRENLAAGMLALAGWDPAEPLLDPFCGSGTILIEAAWIALGVPPGISRPFGFERLRNHDARRWQDLKADARTRIQTQLETPLFGYDLDPRAIQYAQANAERAWLTADTIRFEVGDARHLAAPADHGWIVTNPPYGERMETEDDSEMWRDWAACLKRQFAGWQVHVISSDMTLPQRLRLKPLRRVPLHNGALDCRLFGFELVPASYRKPA”, the “soluble on expression in E. coli” value was “not soluble”.
As to “GMQPETSAQYQHRFSQAIRGGEAADGLPQDRLNVYIRLIRNNIHSFIDRCYTETRQYFDSKEWSRLKEGFVRDARAQTPYFQEIPGEFLQYCQSLPLSDGILALMDFEYTQLLAEVAQIPDIPDIHYSNDSKYTPSPAAFIRQYRYDVTHDLQEAETALLIWRNAEDDVMYQTLDGFDMMLLEIMGSSALSFDTLAQTLVEFMPKADNWKNILLGKWSGWIEQRIIIPSLSAISENMEGNSPSQNHLSA”, the “soluble on expression in E. coli” value is listed as “soluble”.
For “RVMLRQTQYLNEAIKLMASKNLSVPFGMDCKDEYGDVARELEKTRRQLHDVIQMQINASDELATLTEVMTLSMSETKESA”, the “soluble on expression in E. coli” value is on record as “not soluble”.
As for “MFPRKELLKDGSLLLIREASIWDARRIVEYLKEVTSETDFLITRPDEVYDVSTERNYIRMYRSNPGKLMIVGEINREIVSLLTFTGFGRKRTKHVGEIGISVKKRYWNIGIGTRMITSAIEWARRNGFIRIQLEVLKSNERAISLYRKLGFELEGIKRKAVRRDDGSFEDVLVMALLLD”, the “soluble on expression in E. coli” value is on record as “soluble”.
